Experimental data from paper PMC10894068.

Assays:
Experiment in all cases: BLI
AN13A(479-594) (human) = target: AN13A(479-594) (human)
UIMC1(76-128) (human) = UIMC1(76-128) (human) (UniProt Q96RL1)
USP37(700-851) (human) = USP37(700-851) (human) (UniProt Q86T82)
UniProt Q86T82, sequence (Q86T82 700-851): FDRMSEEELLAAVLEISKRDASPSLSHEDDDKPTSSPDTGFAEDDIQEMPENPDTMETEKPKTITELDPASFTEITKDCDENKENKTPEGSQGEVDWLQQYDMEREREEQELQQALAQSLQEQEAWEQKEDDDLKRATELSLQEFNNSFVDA

UniProt Q96RL1, sequence (Q96RL1 76-128): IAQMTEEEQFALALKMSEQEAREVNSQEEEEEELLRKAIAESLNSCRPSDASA

Row | Substance | Kd (AN13A(479-594) (human)) | Kd (UIMC1(76-128) (human)) | Kd (USP37(700-851) (human))
1 | K11-diUb (from UniProt P0CG47 1-76) (complex) | 1280 nM | 2920 nM | 8890 nM
2 | K11/K48-triUb-(1,0) (triUb-NC(1,0)) (from UniProt P0CG47 1-75; P0CG47 1-76; P0CG47 1-76) (complex) | 7830 nM |  | 
3 | K11/K63-triUb-(1,0) (triUb-NC(1,0)) (from UniProt P0CG47 1-75; P0CG47 1-76; P0CG47 1-76) (complex) | 430 nM | 1040 nM | 3360 nM
4 | K63-diUb containing a native linkage (from UniProt P0CG47 1-76) (complex) | 250 nM | 2170 nM | 4970 nM
5 | K63/K48-triUb-(1,0) (triUb-NC(1,0)) (from UniProt P0CG47 1-75; P0CG47 1-76; P0CG47 1-76) (complex) | 740 nM | 2430 nM | 2710 nM
